Laboratory results taken from IntAct's records for PubMed 18342605.

Tests used:
[1] = target: nab3_yeast NAB3 (UniProt P38996)
[2] = target: pp12_yeast GLC7 (UniProt P32598)
UniProt P32598, sequence (P32598 whole entry): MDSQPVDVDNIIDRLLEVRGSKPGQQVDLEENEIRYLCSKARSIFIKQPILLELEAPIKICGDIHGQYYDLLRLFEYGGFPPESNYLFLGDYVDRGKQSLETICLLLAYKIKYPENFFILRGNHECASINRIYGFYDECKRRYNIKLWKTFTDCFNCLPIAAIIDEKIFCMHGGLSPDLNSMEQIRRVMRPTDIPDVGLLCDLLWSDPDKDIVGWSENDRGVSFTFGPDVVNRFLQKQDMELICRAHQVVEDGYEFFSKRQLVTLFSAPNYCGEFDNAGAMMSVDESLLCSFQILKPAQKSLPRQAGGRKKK

UniProt P38996, sequence (P38996 whole entry): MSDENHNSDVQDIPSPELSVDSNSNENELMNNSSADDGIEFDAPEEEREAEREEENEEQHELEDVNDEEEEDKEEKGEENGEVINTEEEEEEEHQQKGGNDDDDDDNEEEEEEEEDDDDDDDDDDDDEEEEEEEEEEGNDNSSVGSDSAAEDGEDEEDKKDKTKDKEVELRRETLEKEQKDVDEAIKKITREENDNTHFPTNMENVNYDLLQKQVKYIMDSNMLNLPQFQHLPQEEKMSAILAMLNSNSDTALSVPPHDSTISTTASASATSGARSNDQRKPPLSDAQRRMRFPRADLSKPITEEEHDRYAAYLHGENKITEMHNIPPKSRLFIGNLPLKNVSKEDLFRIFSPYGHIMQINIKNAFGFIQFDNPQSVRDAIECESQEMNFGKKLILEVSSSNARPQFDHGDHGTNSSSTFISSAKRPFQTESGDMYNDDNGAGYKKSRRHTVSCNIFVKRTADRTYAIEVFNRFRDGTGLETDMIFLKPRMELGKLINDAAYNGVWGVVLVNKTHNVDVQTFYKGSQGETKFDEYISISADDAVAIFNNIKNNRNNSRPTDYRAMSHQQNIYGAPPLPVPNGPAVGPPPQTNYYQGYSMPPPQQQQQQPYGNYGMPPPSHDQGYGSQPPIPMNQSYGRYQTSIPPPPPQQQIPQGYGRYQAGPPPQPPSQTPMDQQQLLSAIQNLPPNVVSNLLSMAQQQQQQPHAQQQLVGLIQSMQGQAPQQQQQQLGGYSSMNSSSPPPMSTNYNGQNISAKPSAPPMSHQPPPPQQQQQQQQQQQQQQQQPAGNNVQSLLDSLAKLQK

effect of a mutation on the interaction [1] | effect of a mutation on the interaction [2] | Substance
with no effect | disrupting interaction strength | Helicase SEN1 (Saccharomyces cerevisiae), Q00416 F2003A
with no effect | with no effect | Helicase SEN1 (Saccharomyces cerevisiae), Q00416 K1999A
